*1 amine or outer side, *2 acyl side, *3 side chain or, on linkers, in order; H or OH if unused. Where no end group is shown, it is not given here. Side-chain parts run from the residue outwards. The star is where a group is joined. C18 diacid = O=C(O)CCCCCCCCCCCCCCCCC(=O)*; C16 diacid = O=C(O)CCCCCCCCCCCCCCC(=O)*; γGlu = O=C(O)[C@H](CCC(=O)[*:2])N[*:1]; AEEA = NCCOCCOCC(=O)O
T1: human GIP receptor (human, UniProt P48546 22-466)
T1 sequence (looked up): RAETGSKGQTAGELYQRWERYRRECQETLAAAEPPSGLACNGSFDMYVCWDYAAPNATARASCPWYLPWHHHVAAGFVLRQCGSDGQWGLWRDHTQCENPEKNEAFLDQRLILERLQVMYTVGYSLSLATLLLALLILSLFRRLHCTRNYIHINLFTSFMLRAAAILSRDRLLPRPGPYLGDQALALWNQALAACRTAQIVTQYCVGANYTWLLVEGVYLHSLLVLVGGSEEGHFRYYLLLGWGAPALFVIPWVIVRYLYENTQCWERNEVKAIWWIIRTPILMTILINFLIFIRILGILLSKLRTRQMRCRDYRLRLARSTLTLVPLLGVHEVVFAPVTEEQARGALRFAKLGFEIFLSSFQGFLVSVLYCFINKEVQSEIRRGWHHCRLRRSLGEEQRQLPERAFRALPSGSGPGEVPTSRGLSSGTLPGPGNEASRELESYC

B1: AT430 (peptide)
peptide: TFISDYK([AEEA-AEEA-AEEA-γGlu-C18 diacid])IAMDRIHQQDFVNWLLAQRGRRNDW-OH
modifications: N-terminus assumed
SMILES: CC[C@H](C)[C@H](NC(=O)[C@H](CCCCNC(=O)COCCOCCNC(=O)COCCOCCNC(=O)COCCOCCNC(=O)CC[C@H](NC(=O)CCCCCCCCCCCCCCCCC(=O)O)C(=O)O)NC(=O)[C@H](Cc1ccc(O)cc1)NC(=O)[C@H](CC(=O)O)NC(=O)[C@H](CO)NC(=O)[C@@H](NC(=O)[C@H](Cc1ccccc1)NC(=O)[C@@H](N)[C@@H](C)O)[C@@H](C)CC)C(=O)N[C@@H](C)C(=O)N[C@@H](CCSC)C(=O)N[C@@H](CC(=O)O)C(=O)N[C@@H](CCCNC(=N)N)C(=O)N[C@H](C(=O)N[C@@H](Cc1c[nH]cn1)C(=O)N[C@@H](CCC(N)=O)C(=O)N[C@@H](CCC(N)=O)C(=O)N[C@@H](CC(=O)O)C(=O)N[C@@H](Cc1ccccc1)C(=O)N[C@H](C(=O)N[C@@H](CC(N)=O)C(=O)N[C@@H](Cc1c[nH]c2ccccc12)C(=O)N[C@@H](CC(C)C)C(=O)N[C@@H](CC(C)C)C(=O)N[C@@H](C)C(=O)N[C@@H](CCC(N)=O)C(=O)N[C@@H](CCCNC(=N)N)C(=O)NCC(=O)N[C@@H](CCCNC(=N)N)C(=O)N[C@@H](CCCNC(=N)N)C(=O)N[C@@H](CC(N)=O)C(=O)N[C@@H](CC(=O)O)C(=O)N[C@@H](Cc1c[nH]c2ccccc12)C(=O)O)C(C)C)[C@@H](C)CC
B2: AT419 (peptide)
peptide: SGTFISDYSIAMDKIK([AEEA-AEEA-γGlu-C16 diacid])QQDFVNWLLAQKGKKNDW-OH
modifications: N-terminus assumed
SMILES: CC[C@H](C)[C@H](NC(=O)[C@H](CO)NC(=O)[C@H](Cc1ccc(O)cc1)NC(=O)[C@H](CC(=O)O)NC(=O)[C@H](CO)NC(=O)[C@@H](NC(=O)[C@H](Cc1ccccc1)NC(=O)[C@@H](NC(=O)CNC(=O)[C@@H](N)CO)[C@@H](C)O)[C@@H](C)CC)C(=O)N[C@@H](C)C(=O)N[C@@H](CCSC)C(=O)N[C@@H](CC(=O)O)C(=O)N[C@@H](CCCCN)C(=O)N[C@H](C(=O)N[C@@H](CCCCNC(=O)COCCOCCNC(=O)COCCOCCNC(=O)CC[C@H](NC(=O)CCCCCCCCCCCCCCC(=O)O)C(=O)O)C(=O)N[C@@H](CCC(N)=O)C(=O)N[C@@H](CCC(N)=O)C(=O)N[C@@H](CC(=O)O)C(=O)N[C@@H](Cc1ccccc1)C(=O)N[C@H](C(=O)N[C@@H](CC(N)=O)C(=O)N[C@@H](Cc1c[nH]c2ccccc12)C(=O)N[C@@H](CC(C)C)C(=O)N[C@@H](CC(C)C)C(=O)N[C@@H](C)C(=O)N[C@@H](CCC(N)=O)C(=O)N[C@@H](CCCCN)C(=O)NCC(=O)N[C@@H](CCCCN)C(=O)N[C@@H](CCCCN)C(=O)N[C@@H](CC(N)=O)C(=O)N[C@@H](CC(=O)O)C(=O)N[C@@H](Cc1c[nH]c2ccccc12)C(=O)O)C(C)C)[C@@H](C)CC
B3: AT428 (peptide)
peptide: TFISDYK([AEEA-AEEA-AEEA-γGlu-C16 diacid])IAMDRIHQQDFVNWLLAQRGRRNDW-OH
modifications: N-terminus assumed
SMILES: CC[C@H](C)[C@H](NC(=O)[C@H](CCCCNC(=O)COCCOCCNC(=O)COCCOCCNC(=O)COCCOCCNC(=O)CC[C@H](NC(=O)CCCCCCCCCCCCCCC(=O)O)C(=O)O)NC(=O)[C@H](Cc1ccc(O)cc1)NC(=O)[C@H](CC(=O)O)NC(=O)[C@H](CO)NC(=O)[C@@H](NC(=O)[C@H](Cc1ccccc1)NC(=O)[C@@H](N)[C@@H](C)O)[C@@H](C)CC)C(=O)N[C@@H](C)C(=O)N[C@@H](CCSC)C(=O)N[C@@H](CC(=O)O)C(=O)N[C@@H](CCCNC(=N)N)C(=O)N[C@H](C(=O)N[C@@H](Cc1c[nH]cn1)C(=O)N[C@@H](CCC(N)=O)C(=O)N[C@@H](CCC(N)=O)C(=O)N[C@@H](CC(=O)O)C(=O)N[C@@H](Cc1ccccc1)C(=O)N[C@H](C(=O)N[C@@H](CC(N)=O)C(=O)N[C@@H](Cc1c[nH]c2ccccc12)C(=O)N[C@@H](CC(C)C)C(=O)N[C@@H](CC(C)C)C(=O)N[C@@H](C)C(=O)N[C@@H](CCC(N)=O)C(=O)N[C@@H](CCCNC(=N)N)C(=O)NCC(=O)N[C@@H](CCCNC(=N)N)C(=O)N[C@@H](CCCNC(=N)N)C(=O)N[C@@H](CC(N)=O)C(=O)N[C@@H](CC(=O)O)C(=O)N[C@@H](Cc1c[nH]c2ccccc12)C(=O)O)C(C)C)[C@@H](C)CC
B4: AT368 (peptide)
peptide: TFISDYKIAMDKIHQQDFVNWLLAQKGKKNDWKHNITQ
HELM: PEPTIDE1{T.F.I.S.D.Y.K.I.A.M.D.K.I.H.Q.Q.D.F.V.N.W.L.L.A.Q.K.G.K.K.N.D.W.K.H.N.I.T.Q}|PEPTIDE2{[O=C(O)CCCCCCCCCCCCCCC(=O)[*:2]].[gGlu]}$PEPTIDE1,PEPTIDE2,7:R3-2:R2$$$V2.0; N-terminus assumed
SMILES: CC[C@H](C)[C@H](NC(=O)[C@H](CCCCNC(=O)CC[C@H](NC(=O)CCCCCCCCCCCCCCC(=O)O)C(=O)O)NC(=O)[C@H](Cc1ccc(O)cc1)NC(=O)[C@H](CC(=O)O)NC(=O)[C@H](CO)NC(=O)[C@@H](NC(=O)[C@H](Cc1ccccc1)NC(=O)[C@@H](N)[C@@H](C)O)[C@@H](C)CC)C(=O)N[C@@H](C)C(=O)N[C@@H](CCSC)C(=O)N[C@@H](CC(=O)O)C(=O)N[C@@H](CCCCN)C(=O)N[C@H](C(=O)N[C@@H](Cc1c[nH]cn1)C(=O)N[C@@H](CCC(N)=O)C(=O)N[C@@H](CCC(N)=O)C(=O)N[C@@H](CC(=O)O)C(=O)N[C@@H](Cc1ccccc1)C(=O)N[C@H](C(=O)N[C@@H](CC(N)=O)C(=O)N[C@@H](Cc1c[nH]c2ccccc12)C(=O)N[C@@H](CC(C)C)C(=O)N[C@@H](CC(C)C)C(=O)N[C@@H](C)C(=O)N[C@@H](CCC(N)=O)C(=O)N[C@@H](CCCCN)C(=O)NCC(=O)N[C@@H](CCCCN)C(=O)N[C@@H](CCCCN)C(=O)N[C@@H](CC(N)=O)C(=O)N[C@@H](CC(=O)O)C(=O)N[C@@H](Cc1c[nH]c2ccccc12)C(=O)N[C@@H](CCCCN)C(=O)N[C@@H](Cc1c[nH]cn1)C(=O)N[C@@H](CC(N)=O)C(=O)N[C@H](C(=O)N[C@H](C(=O)N[C@@H](CCC(N)=O)C(=O)O)[C@@H](C)O)[C@@H](C)CC)C(C)C)[C@@H](C)CC
B5: AT420 (peptide)
peptide: SGTFISDYSIAMDKIK([AEEA-AEEA-AEEA-γGlu-C16 diacid])QQDFVNWLLAQKGKKNDW-OH
modifications: N-terminus assumed
SMILES: CC[C@H](C)[C@H](NC(=O)[C@H](CO)NC(=O)[C@H](Cc1ccc(O)cc1)NC(=O)[C@H](CC(=O)O)NC(=O)[C@H](CO)NC(=O)[C@@H](NC(=O)[C@H](Cc1ccccc1)NC(=O)[C@@H](NC(=O)CNC(=O)[C@@H](N)CO)[C@@H](C)O)[C@@H](C)CC)C(=O)N[C@@H](C)C(=O)N[C@@H](CCSC)C(=O)N[C@@H](CC(=O)O)C(=O)N[C@@H](CCCCN)C(=O)N[C@H](C(=O)N[C@@H](CCCCNC(=O)COCCOCCNC(=O)COCCOCCNC(=O)COCCOCCNC(=O)CC[C@H](NC(=O)CCCCCCCCCCCCCCC(=O)O)C(=O)O)C(=O)N[C@@H](CCC(N)=O)C(=O)N[C@@H](CCC(N)=O)C(=O)N[C@@H](CC(=O)O)C(=O)N[C@@H](Cc1ccccc1)C(=O)N[C@H](C(=O)N[C@@H](CC(N)=O)C(=O)N[C@@H](Cc1c[nH]c2ccccc12)C(=O)N[C@@H](CC(C)C)C(=O)N[C@@H](CC(C)C)C(=O)N[C@@H](C)C(=O)N[C@@H](CCC(N)=O)C(=O)N[C@@H](CCCCN)C(=O)NCC(=O)N[C@@H](CCCCN)C(=O)N[C@@H](CCCCN)C(=O)N[C@@H](CC(N)=O)C(=O)N[C@@H](CC(=O)O)C(=O)N[C@@H](Cc1c[nH]c2ccccc12)C(=O)O)C(C)C)[C@@H](C)CC
B6: AT367 (peptide)
peptide: TFISDYKIAMDKIHQQDFVNWLLAQKGKKNDWKHN
HELM: PEPTIDE1{T.F.I.S.D.Y.K.I.A.M.D.K.I.H.Q.Q.D.F.V.N.W.L.L.A.Q.K.G.K.K.N.D.W.K.H.N}|PEPTIDE2{[O=C(O)CCCCCCCCCCCCCCC(=O)[*:2]].[gGlu]}$PEPTIDE1,PEPTIDE2,7:R3-2:R2$$$V2.0; N-terminus assumed
SMILES: CC[C@H](C)[C@H](NC(=O)[C@H](CCCCNC(=O)CC[C@H](NC(=O)CCCCCCCCCCCCCCC(=O)O)C(=O)O)NC(=O)[C@H](Cc1ccc(O)cc1)NC(=O)[C@H](CC(=O)O)NC(=O)[C@H](CO)NC(=O)[C@@H](NC(=O)[C@H](Cc1ccccc1)NC(=O)[C@@H](N)[C@@H](C)O)[C@@H](C)CC)C(=O)N[C@@H](C)C(=O)N[C@@H](CCSC)C(=O)N[C@@H](CC(=O)O)C(=O)N[C@@H](CCCCN)C(=O)N[C@H](C(=O)N[C@@H](Cc1c[nH]cn1)C(=O)N[C@@H](CCC(N)=O)C(=O)N[C@@H](CCC(N)=O)C(=O)N[C@@H](CC(=O)O)C(=O)N[C@@H](Cc1ccccc1)C(=O)N[C@H](C(=O)N[C@@H](CC(N)=O)C(=O)N[C@@H](Cc1c[nH]c2ccccc12)C(=O)N[C@@H](CC(C)C)C(=O)N[C@@H](CC(C)C)C(=O)N[C@@H](C)C(=O)N[C@@H](CCC(N)=O)C(=O)N[C@@H](CCCCN)C(=O)NCC(=O)N[C@@H](CCCCN)C(=O)N[C@@H](CCCCN)C(=O)N[C@@H](CC(N)=O)C(=O)N[C@@H](CC(=O)O)C(=O)N[C@@H](Cc1c[nH]c2ccccc12)C(=O)N[C@@H](CCCCN)C(=O)N[C@@H](Cc1c[nH]cn1)C(=O)N[C@@H](CC(N)=O)C(=O)O)C(C)C)[C@@H](C)CC

Molecular target: T1, human GIP receptor
Experiment: cell-based or functional assay

Binder	cAMP antagonism	cAMP antagonism % inhib	cAMP antagonism log	cAMP agonism Emax
B1	153 nM	100%	-6.8 log M	–
B2	215 nM	78%	-6.7 log M	4.9
B3	296 nM	90%	-6.5 log M	–
B4	9 nM	100%	-8.1 log M	–
B5	237 nM	100%	-6.6 log M	–
B6	6 nM	100%	-8.3 log M	–

From patent publication US20220298218A1 (ANTAG THERAPEUTICS, published 2022)
